First the molecules themselves.
B1: TRIM43 (parent)
chain: NNSWIRKNSTMVNSEDIFLLLCLK
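Further: lentivirally expressed fusions sorted by FACS into six bins by GFP to DsRed ratio, PSI derived from sequencing read proportions per bin multiplied by bin number.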

In this data set the parent is B1. The data set is described as follows: protein stability index of a GFP-peptide fusion (GPS, HEK-293T) (PSI 1-6); higher = more stable. The conditions noted are these: c terminus: a fixed tail appended.
As to DNSWIRKNSTMVNSEDIFLLLCLK [N1D], the protein stability index was 2.27.

As for INSWIRKNSTMVNSEDIFLLLCLK [N1I], the protein stability index worked out at 2.27.

Take TNSWIRKNSTMVNSEDIFLLLCLK [N1T]: the protein stability index is 2.58.

As to QNSWIRKNSTMVNSEDIFLLLCLK [N1Q], the protein stability index is 2.11.

On to RNSWIRKNSTMVNSEDIFLLLCLK [N1R], for which the protein stability index was determined as 2.71.

Consider NNSWPRKNSTMVNSEDIFLLLCLK [I5P], for which the protein stability index was found to be 3.31.

Regarding NNSWWRKNSTMVNSEDIFLLLCLK [I5W], the protein stability index is 4.27.

As to NNSWVRKNSTMVNSEDIFLLLCLK [I5V], the protein stability index came out at 2.27.

Take NNSWRRKNSTMVNSEDIFLLLCLK [I5R]: the protein stability index turned out to be 2.13.

As to NNSWERKNSTMVNSEDIFLLLCLK [I5E], the protein stability index worked out at 3.23.

Regarding NNSWCRKNSTMVNSEDIFLLLCLK [I5C], the protein stability index came to 2.8.

With NNSWNRKNSTMVNSEDIFLLLCLK [I5N], the protein stability index was found to be 3.07.

As for NNSWMRKNSTMVNSEDIFLLLCLK [I5M], the protein stability index worked out at 2.4.

With NNSWHRKNSTMVNSEDIFLLLCLK [I5H], the protein stability index was 3.14.

Turning to NNSWIRKNSTMVNSIDIFLLLCLK [E15I], the protein stability index came out at 2.72.

Take NNSWIRKNSTMVNSSDIFLLLCLK [E15S]: the protein stability index was 2.47.

Regarding NNSWIRKNSTMVNSWDIFLLLCLK [E15W], the protein stability index worked out at 2.01.

Turning to NNSWIRKNSTMVNSLDIFLLLCLK [E15L], the protein stability index worked out at 2.44.

As for NNSWIRKNSTMVNSGDIFLLLCLK [E15G], the protein stability index came out at 2.29.

For NNSWIRKNSTMVNSKDIFLLLCLK [E15K], the protein stability index turned out to be 2.89.

NNSWIRKNSTMVNSNDIFLLLCLK [E15N]: the protein stability index was 2.88.

On to NNSWIRKNSTMVNSQDIFLLLCLK [E15Q], for which the protein stability index is 4.22.

Take NPSWIRKNSTMVNSEDIFLLLCLK [N2P]: the protein stability index worked out at 2.24.

On to NRSWIRKNSTMVNSEDIFLLLCLK [N2R], for which the protein stability index was 2.93.

For NSSWIRKNSTMVNSEDIFLLLCLK [N2S], the protein stability index worked out at 2.48.

For NCSWIRKNSTMVNSEDIFLLLCLK [N2C], the protein stability index was determined as 2.89.

Regarding NYSWIRKNSTMVNSEDIFLLLCLK [N2Y], the protein stability index was determined as 3.58.

NLSWIRKNSTMVNSEDIFLLLCLK [N2L]: the protein stability index was 2.46.

On to NNSWIRKRSTMVNSEDIFLLLCLK [N8R], for which the protein stability index came out at 3.47.

NNSWIRKHSTMVNSEDIFLLLCLK [N8H]: the protein stability index turned out to be 1.79.

On to NNSWIRKKSTMVNSEDIFLLLCLK [N8K], for which the protein stability index came out at 2.4.

As for NNSWIRKQSTMVNSEDIFLLLCLK [N8Q], the protein stability index is 2.93.

As to NNSWIRKTSTMVNSEDIFLLLCLK [N8T], the protein stability index stood at 3.13.

For the variant NNSWIRKASTMVNSEDIFLLLCLK [N8A], the protein stability index came to 2.9.

Turning to NNSWIRKISTMVNSEDIFLLLCLK [N8I], the protein stability index turned out to be 2.73.

Consider NNSWIRKNSTMHNSEDIFLLLCLK [V12H], for which the protein stability index stood at 1.81.

As to NNSWIRKNSTMGNSEDIFLLLCLK [V12G], the protein stability index was found to be 2.21.

For the variant NNSWIRKNSTMCNSEDIFLLLCLK [V12C], the protein stability index turned out to be 1.62.

For NNSWIRKNSTMRNSEDIFLLLCLK [V12R], the protein stability index came to 4.39.

In the case of NNSWIRKNSTMPNSEDIFLLLCLK [V12P], the protein stability index came out at 2.79.

For the variant NNSWIRKNSTMVNSEDIDLLLCLK [F18D], the protein stability index stood at 2.42.

For the variant NNSWIRKNSTMVNSEDIVLLLCLK [F18V], the protein stability index was 2.92.

Take NNSWIRKNSTMVNSEDICLLLCLK [F18C]: the protein stability index came out at 2.71.

Turning to NNSWIRKNSTMVNSEDIKLLLCLK [F18K], the protein stability index is 2.23.

Turning to NNSWIRKNSTMVNSEDIALLLCLK [F18A], the protein stability index stood at 1.7.

On to NNSWIRKNSTMVNREDIFLLLCLK [S14R], for which the protein stability index came to 2.77.

Take NNSWIRKNSTMVNAEDIFLLLCLK [S14A]: the protein stability index turned out to be 3.2.

With NNSWIRKNSTMVNPEDIFLLLCLK [S14P], the protein stability index amounted to 2.1.

As to NNSWIRKNSTMVNIEDIFLLLCLK [S14I], the protein stability index amounted to 2.62.

Regarding NNSWIRKNSTMVNDEDIFLLLCLK [S14D], the protein stability index was 2.77.

As to NNSWIRKNSTMVNMEDIFLLLCLK [S14M], the protein stability index turned out to be 2.13.

Consider NNSWIKKNSTMVNSEDIFLLLCLK [R6K], for which the protein stability index was determined as 3.09.

Take NNSWIDKNSTMVNSEDIFLLLCLK [R6D]: the protein stability index worked out at 3.82.

With NNSWIMKNSTMVNSEDIFLLLCLK [R6M], the protein stability index worked out at 2.76.

Turning to NNSWIHKNSTMVNSEDIFLLLCLK [R6H], the protein stability index was found to be 3.75.

Take NNSWIRKNSTMVNSEDIFLLLCLP [K24P]: the protein stability index stood at 3.69.

Take NNSWIRKNSTMVNSEDIFLLLCLG [K24G]: the protein stability index was 3.84.

As to NNSWIRKNSTMVNSEDIFLLLCLT [K24T], the protein stability index came to 2.05.

Regarding NNSWIRKNSTMVNSEDIFLLLCLE [K24E], the protein stability index was 4.39.

On to NNSWIRKNSTMVNSEDNFLLLCLK [I17N], for which the protein stability index was found to be 1.85.

NNSWIRKNSTMVNSEDHFLLLCLK [I17H]: the protein stability index turned out to be 2.5.

With NNSWIRKNSTMVNSEDEFLLLCLK [I17E], the protein stability index worked out at 3.62.

On to NNSWIRKNSTMVNSEDQFLLLCLK [I17Q], for which the protein stability index is 3.35.

As for NNSWIRKNSTMVKSEDIFLLLCLK [N13K], the protein stability index stood at 3.69.

With NNSWIRKNSTMVRSEDIFLLLCLK [N13R], the protein stability index came to 2.39.

In the case of NNSWIRKNSTMVCSEDIFLLLCLK [N13C], the protein stability index is 3.44.

NNSWIRKNSTMVDSEDIFLLLCLK [N13D]: the protein stability index is 3.31.

For NNSWIRKNSTMVQSEDIFLLLCLK [N13Q], the protein stability index came out at 3.14.

In the case of NNSWIRKNSTMVGSEDIFLLLCLK [N13G], the protein stability index was determined as 3.19.

With NNSWIRKNSTMVNSEDIFLLWCLK [L21W], the protein stability index came out at 2.91.

Turning to NNSWIRKNSTMVNSEDIFLLRCLK [L21R], the protein stability index came out at 1.94.

NNSWIRKNSTMVNSEDIFLLYCLK [L21Y]: the protein stability index amounted to 2.9.

With NNSWIRKNSTMVNSEDIFLLQCLK [L21Q], the protein stability index is 2.44.

On to NNSWIRKNSTMVNSEDIFLLMCLK [L21M], for which the protein stability index is 3.25.

For the variant NNSWIRKNSTMVNSEDIFLLICLK [L21I], the protein stability index is 3.08.

NNSWIRKNSTMVNSEDIFLLGCLK [L21G]: the protein stability index is 1.83.

Regarding NNSWIRKNSTMVNSEDIFLLVCLK [L21V], the protein stability index is 3.54.

With NNSWIRKNSTMVNSEDIFLLSCLK [L21S], the protein stability index came to 2.65.

Turning to NNSWIRKNSTMVNSECIFLLLCLK [D16C], the protein stability index stood at 3.95.

For NNSWIRKNSTMVNSEFIFLLLCLK [D16F], the protein stability index worked out at 2.37.

Turning to NNSWIRKNSTMVNSERIFLLLCLK [D16R], the protein stability index is 2.8.

Take NNSWIRKNSTMVNSEAIFLLLCLK [D16A]: the protein stability index was 1.59.

Regarding NNSWIRKNSTMVNSEIIFLLLCLK [D16I], the protein stability index came to 2.17.

Take NNSWIRLNSTMVNSEDIFLLLCLK [K7L]: the protein stability index came out at 2.55.

For NNSWIRFNSTMVNSEDIFLLLCLK [K7F], the protein stability index came to 2.97.

Consider NNSWIRNNSTMVNSEDIFLLLCLK [K7N], for which the protein stability index was determined as 2.32.

As to NNSWIRPNSTMVNSEDIFLLLCLK [K7P], the protein stability index stood at 3.02.

On to NNSWIRKNSTMVNSEDIFLLLCPK [L23P], for which the protein stability index worked out at 2.15.

Turning to NNSWIRKNSTMVNSEDIFLLLCNK [L23N], the protein stability index was determined as 1.66.

Consider NNSWIRKNSTMVNSEDIFLLLCHK [L23H], for which the protein stability index is 2.61.

In the case of NNSWIRKNSRMVNSEDIFLLLCLK [T10R], the protein stability index was 2.52.

For the variant NNSWIRKNSGMVNSEDIFLLLCLK [T10G], the protein stability index is 2.9.

In the case of NNSWIRKNSPMVNSEDIFLLLCLK [T10P], the protein stability index came to 2.82.

For NNSWIRKNSVMVNSEDIFLLLCLK [T10V], the protein stability index was 1.95.
